Test results taken from publication PMC5591277.

How the values were obtained:
[1] = target: T1, Lhp1 (yeast La protein) (Saccharomyces cerevisiae) (UniProt P33399); assay: EMSA; conditions: Bmax 75%, 2',3'-cis-diol end, EMSA: 5 nM Cy3-U6, 100 mM KCl, 20% sucrose, 20 mM bis-tris/10 mM HCl, 1 mM EDTA, 1 mM TCEP, 0.01% Triton X-100, 0.1 mg/mL tRNA, 0.01 mg/mL heparin
T1 sequence: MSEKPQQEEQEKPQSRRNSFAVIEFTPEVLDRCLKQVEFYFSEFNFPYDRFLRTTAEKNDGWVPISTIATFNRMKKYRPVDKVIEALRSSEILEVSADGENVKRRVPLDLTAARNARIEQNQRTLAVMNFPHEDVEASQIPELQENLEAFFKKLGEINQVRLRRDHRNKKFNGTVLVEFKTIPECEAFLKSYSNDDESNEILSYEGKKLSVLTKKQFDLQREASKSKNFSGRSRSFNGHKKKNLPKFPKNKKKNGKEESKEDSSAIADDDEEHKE

[2] = target: T2, Lsm2-8 complex (Saccharomyces cerevisiae) (UniProt P38203+P57743+P40070+P40089+Q06406+P53905+P47093); assay: EMSA; conditions: Bmax 100%, EMSA: 5 nM Cy3-U6, 100 mM KCl, 20% sucrose, 20 mM bis-tris/10 mM HCl, 1 mM EDTA, 1 mM TCEP, 0.01% Triton X-100, 0.1 mg/mL tRNA, 0.01 mg/mL heparin
T2 sequence 1: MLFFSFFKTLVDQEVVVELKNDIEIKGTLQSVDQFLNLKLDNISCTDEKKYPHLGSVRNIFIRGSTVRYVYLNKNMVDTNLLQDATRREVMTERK
T2 sequence 2: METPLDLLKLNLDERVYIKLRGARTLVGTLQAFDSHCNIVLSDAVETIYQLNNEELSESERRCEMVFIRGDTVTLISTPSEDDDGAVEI
T2 sequence 3: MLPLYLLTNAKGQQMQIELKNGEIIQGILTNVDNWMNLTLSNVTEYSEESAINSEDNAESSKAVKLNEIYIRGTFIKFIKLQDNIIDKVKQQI
T2 sequence 4: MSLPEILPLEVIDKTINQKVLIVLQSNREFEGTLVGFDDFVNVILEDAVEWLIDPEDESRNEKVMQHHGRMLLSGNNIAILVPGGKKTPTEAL
T2 sequence 5: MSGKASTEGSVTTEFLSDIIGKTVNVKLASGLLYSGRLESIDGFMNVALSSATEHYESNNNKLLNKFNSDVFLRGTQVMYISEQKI
T2 sequence 6: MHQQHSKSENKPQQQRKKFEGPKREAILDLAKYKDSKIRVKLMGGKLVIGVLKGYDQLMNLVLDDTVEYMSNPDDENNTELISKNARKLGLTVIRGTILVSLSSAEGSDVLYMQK
T2 sequence 7: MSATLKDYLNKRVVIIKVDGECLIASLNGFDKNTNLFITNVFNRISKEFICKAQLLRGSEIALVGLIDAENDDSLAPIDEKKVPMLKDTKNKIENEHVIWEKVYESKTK

## U6 1-112 3'OH
[1]
  Kd: 0.018 µM
[2]; 2',3'-cis-diol end
  Kd: 0.21 µM

## U6 1-112+1U 3'OH
[1]
  Kd: 0.012 µM
[2]; 2',3'-cis-diol end
  Kd: 0.03 µM

## U6 1-112+1U>p
[2]; 2',3'-cyclic phosphate
  Kd: 0.07 µM
